From patent publication US20180155451A1 (published 2018)

T1: FcγRIIb, extracellular domain with C-terminal His tag (human, UniProt P31994 43-217)
T1 construct: extracellular domain; also called 2b; FcgRIIb; not shown: His tag at the C terminus
T1 sequence (looked up): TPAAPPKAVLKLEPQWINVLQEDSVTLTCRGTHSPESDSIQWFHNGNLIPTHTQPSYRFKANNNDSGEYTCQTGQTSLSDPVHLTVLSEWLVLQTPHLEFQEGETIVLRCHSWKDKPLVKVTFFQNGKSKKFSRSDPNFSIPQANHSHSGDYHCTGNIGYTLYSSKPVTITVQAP

T2: FcγRIIa H (FcγRIIa type H, His at position 131), extracellular domain with C-terminal His tag (human, UniProt P12318 34-217)
T2 construct: extracellular domain; also called 2aH; FcgRIIa H; not shown: His tag at the C terminus
T2 sequence (looked up): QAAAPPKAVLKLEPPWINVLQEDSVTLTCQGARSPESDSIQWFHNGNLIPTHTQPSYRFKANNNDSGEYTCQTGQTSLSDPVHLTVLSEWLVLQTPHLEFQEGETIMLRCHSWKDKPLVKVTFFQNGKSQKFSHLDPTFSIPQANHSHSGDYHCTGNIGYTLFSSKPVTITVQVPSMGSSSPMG

B1: GpH7-A5/GpH7-B3 variant H268_01G/GpL16-k0 (antibody, human IgG1, kappa)
heavy 1: not shown
heavy 2: not shown
light: DIVMTQSPLSLPVTPGEPASISCQASESLVHSNRNTYLHWYLQKPGQSPQLLIYKVSNRFSGVPDRFSGSGSGTDFTLKISRVEAEDVGVYYCSQNTHVPPTFGQGTKVEIERTVAAPSVFIFPPSDEQLKSGTASVVCLLNNFYPREAKVQWKVDNALQSGNSQESVTEQDSKDSTYSLSSTLTLSKADYEKHKVYACEVTHQGLSSPVTKSFNRGEC
notes: Heterodimerized IgG1 (He Ab); mutation only in the GpH7-B3 chain; also called He Ab H268G
B2: GpH7-A5/GpH7-B3 variant K326_03V/GpL16-k0 (antibody, human IgG1, kappa)
heavy 1: not shown
heavy 2: not shown
light: DIVMTQSPLSLPVTPGEPASISCQASESLVHSNRNTYLHWYLQKPGQSPQLLIYKVSNRFSGVPDRFSGSGSGTDFTLKISRVEAEDVGVYYCSQNTHVPPTFGQGTKVEIERTVAAPSVFIFPPSDEQLKSGTASVVCLLNNFYPREAKVQWKVDNALQSGNSQESVTEQDSKDSTYSLSSTLTLSKADYEKHKVYACEVTHQGLSSPVTKSFNRGEC
notes: Heterodimerized IgG1 (He Ab); mutation only in the GpH7-B3 chain; also called He Ab K326V
B3: GpH7-A5/GpH7-B3 variant K326_08L/GpL16-k0 (antibody, human IgG1, kappa)
heavy 1: not shown
heavy 2: not shown
light: DIVMTQSPLSLPVTPGEPASISCQASESLVHSNRNTYLHWYLQKPGQSPQLLIYKVSNRFSGVPDRFSGSGSGTDFTLKISRVEAEDVGVYYCSQNTHVPPTFGQGTKVEIERTVAAPSVFIFPPSDEQLKSGTASVVCLLNNFYPREAKVQWKVDNALQSGNSQESVTEQDSKDSTYSLSSTLTLSKADYEKHKVYACEVTHQGLSSPVTKSFNRGEC
notes: Heterodimerized IgG1 (He Ab); mutation only in the GpH7-B3 chain; also called He Ab K326L
B4: GpH7-A5/GpH7-B3 variant S267_19Q/GpL16-k0 (antibody, human IgG1, kappa)
heavy 1: not shown
heavy 2: not shown
light: DIVMTQSPLSLPVTPGEPASISCQASESLVHSNRNTYLHWYLQKPGQSPQLLIYKVSNRFSGVPDRFSGSGSGTDFTLKISRVEAEDVGVYYCSQNTHVPPTFGQGTKVEIERTVAAPSVFIFPPSDEQLKSGTASVVCLLNNFYPREAKVQWKVDNALQSGNSQESVTEQDSKDSTYSLSSTLTLSKADYEKHKVYACEVTHQGLSSPVTKSFNRGEC
notes: Heterodimerized IgG1 (He Ab); mutation only in the GpH7-B3 chain; also called He Ab S267Q
B5: GpH7-A5/GpH7-B3 variant H268_05P/GpL16-k0 (antibody, human IgG1, kappa)
heavy 1: not shown
heavy 2: not shown
light: DIVMTQSPLSLPVTPGEPASISCQASESLVHSNRNTYLHWYLQKPGQSPQLLIYKVSNRFSGVPDRFSGSGSGTDFTLKISRVEAEDVGVYYCSQNTHVPPTFGQGTKVEIERTVAAPSVFIFPPSDEQLKSGTASVVCLLNNFYPREAKVQWKVDNALQSGNSQESVTEQDSKDSTYSLSSTLTLSKADYEKHKVYACEVTHQGLSSPVTKSFNRGEC
notes: Heterodimerized IgG1 (He Ab); mutation only in the GpH7-B3 chain; also called He Ab H268P
B6: GpH7-A5/GpH7-B3 variant P271_10E/GpL16-k0 (antibody, human IgG1, kappa)
heavy 1: not shown
heavy 2: not shown
light: DIVMTQSPLSLPVTPGEPASISCQASESLVHSNRNTYLHWYLQKPGQSPQLLIYKVSNRFSGVPDRFSGSGSGTDFTLKISRVEAEDVGVYYCSQNTHVPPTFGQGTKVEIERTVAAPSVFIFPPSDEQLKSGTASVVCLLNNFYPREAKVQWKVDNALQSGNSQESVTEQDSKDSTYSLSSTLTLSKADYEKHKVYACEVTHQGLSSPVTKSFNRGEC
notes: Heterodimerized IgG1 (He Ab); mutation only in the GpH7-B3 chain; also called He Ab P271E
B7: GpH7-A5/GpH7-B3 variant S298_08L/GpL16-k0 (antibody, human IgG1, kappa)
heavy 1: not shown
heavy 2: not shown
light: DIVMTQSPLSLPVTPGEPASISCQASESLVHSNRNTYLHWYLQKPGQSPQLLIYKVSNRFSGVPDRFSGSGSGTDFTLKISRVEAEDVGVYYCSQNTHVPPTFGQGTKVEIERTVAAPSVFIFPPSDEQLKSGTASVVCLLNNFYPREAKVQWKVDNALQSGNSQESVTEQDSKDSTYSLSSTLTLSKADYEKHKVYACEVTHQGLSSPVTKSFNRGEC
notes: Heterodimerized IgG1 (He Ab); mutation only in the GpH7-B3 chain; also called He Ab S298L
B8: GpH7-A5/GpH7-B3 variant H268_03V/GpL16-k0 (antibody, human IgG1, kappa)
heavy 1: not shown
heavy 2: not shown
light: DIVMTQSPLSLPVTPGEPASISCQASESLVHSNRNTYLHWYLQKPGQSPQLLIYKVSNRFSGVPDRFSGSGSGTDFTLKISRVEAEDVGVYYCSQNTHVPPTFGQGTKVEIERTVAAPSVFIFPPSDEQLKSGTASVVCLLNNFYPREAKVQWKVDNALQSGNSQESVTEQDSKDSTYSLSSTLTLSKADYEKHKVYACEVTHQGLSSPVTKSFNRGEC
notes: Heterodimerized IgG1 (He Ab); mutation only in the GpH7-B3 chain; also called He Ab H268V
B9: GpH7-A5/GpH7-B3 variant P271_09D/GpL16-k0 (antibody, human IgG1, kappa)
heavy 1: not shown
heavy 2: not shown
light: DIVMTQSPLSLPVTPGEPASISCQASESLVHSNRNTYLHWYLQKPGQSPQLLIYKVSNRFSGVPDRFSGSGSGTDFTLKISRVEAEDVGVYYCSQNTHVPPTFGQGTKVEIERTVAAPSVFIFPPSDEQLKSGTASVVCLLNNFYPREAKVQWKVDNALQSGNSQESVTEQDSKDSTYSLSSTLTLSKADYEKHKVYACEVTHQGLSSPVTKSFNRGEC
notes: Heterodimerized IgG1 (He Ab); mutation only in the GpH7-B3 chain; also called He Ab P271D
B10: GpH7-A5/GpH7-B3 variant K326_05P/GpL16-k0 (antibody, human IgG1, kappa)
heavy 1: not shown
heavy 2: not shown
light: DIVMTQSPLSLPVTPGEPASISCQASESLVHSNRNTYLHWYLQKPGQSPQLLIYKVSNRFSGVPDRFSGSGSGTDFTLKISRVEAEDVGVYYCSQNTHVPPTFGQGTKVEIERTVAAPSVFIFPPSDEQLKSGTASVVCLLNNFYPREAKVQWKVDNALQSGNSQESVTEQDSKDSTYSLSSTLTLSKADYEKHKVYACEVTHQGLSSPVTKSFNRGEC
notes: Heterodimerized IgG1 (He Ab); mutation only in the GpH7-B3 chain; also called He Ab K326P
B11: GpH7-A5/GpH7-B3 variant Y300_10E/GpL16-k0 (antibody, human IgG1, kappa)
heavy 1: not shown
heavy 2: not shown
light: DIVMTQSPLSLPVTPGEPASISCQASESLVHSNRNTYLHWYLQKPGQSPQLLIYKVSNRFSGVPDRFSGSGSGTDFTLKISRVEAEDVGVYYCSQNTHVPPTFGQGTKVEIERTVAAPSVFIFPPSDEQLKSGTASVVCLLNNFYPREAKVQWKVDNALQSGNSQESVTEQDSKDSTYSLSSTLTLSKADYEKHKVYACEVTHQGLSSPVTKSFNRGEC
notes: Heterodimerized IgG1 (He Ab); mutation only in the GpH7-B3 chain; also called He Ab Y300E
B12: GpH7-A5/GpH7-B3 variant H268_20W/GpL16-k0 (antibody, human IgG1, kappa)
heavy 1: not shown
heavy 2: not shown
light: DIVMTQSPLSLPVTPGEPASISCQASESLVHSNRNTYLHWYLQKPGQSPQLLIYKVSNRFSGVPDRFSGSGSGTDFTLKISRVEAEDVGVYYCSQNTHVPPTFGQGTKVEIERTVAAPSVFIFPPSDEQLKSGTASVVCLLNNFYPREAKVQWKVDNALQSGNSQESVTEQDSKDSTYSLSSTLTLSKADYEKHKVYACEVTHQGLSSPVTKSFNRGEC
notes: Heterodimerized IgG1 (He Ab); mutation only in the GpH7-B3 chain; also called He Ab H268W
B13: GpH7-A5/GpH7-B3 variant Y296_20W/GpL16-k0 (antibody, human IgG1, kappa)
heavy 1: not shown
heavy 2: not shown
light: DIVMTQSPLSLPVTPGEPASISCQASESLVHSNRNTYLHWYLQKPGQSPQLLIYKVSNRFSGVPDRFSGSGSGTDFTLKISRVEAEDVGVYYCSQNTHVPPTFGQGTKVEIERTVAAPSVFIFPPSDEQLKSGTASVVCLLNNFYPREAKVQWKVDNALQSGNSQESVTEQDSKDSTYSLSSTLTLSKADYEKHKVYACEVTHQGLSSPVTKSFNRGEC
notes: Heterodimerized IgG1 (He Ab); mutation only in the GpH7-B3 chain; also called He Ab Y296W
B14: GpH7-A5/GpH7-B3 variant S298_06M/GpL16-k0 (antibody, human IgG1, kappa)
heavy 1: not shown
heavy 2: not shown
light: DIVMTQSPLSLPVTPGEPASISCQASESLVHSNRNTYLHWYLQKPGQSPQLLIYKVSNRFSGVPDRFSGSGSGTDFTLKISRVEAEDVGVYYCSQNTHVPPTFGQGTKVEIERTVAAPSVFIFPPSDEQLKSGTASVVCLLNNFYPREAKVQWKVDNALQSGNSQESVTEQDSKDSTYSLSSTLTLSKADYEKHKVYACEVTHQGLSSPVTKSFNRGEC
notes: Heterodimerized IgG1 (He Ab); mutation only in the GpH7-B3 chain; also called He Ab S298M
B15: GpH7-A5/GpH7-B3 variant P271_08L/GpL16-k0 (antibody, human IgG1, kappa)
heavy 1: not shown
heavy 2: not shown
light: DIVMTQSPLSLPVTPGEPASISCQASESLVHSNRNTYLHWYLQKPGQSPQLLIYKVSNRFSGVPDRFSGSGSGTDFTLKISRVEAEDVGVYYCSQNTHVPPTFGQGTKVEIERTVAAPSVFIFPPSDEQLKSGTASVVCLLNNFYPREAKVQWKVDNALQSGNSQESVTEQDSKDSTYSLSSTLTLSKADYEKHKVYACEVTHQGLSSPVTKSFNRGEC
notes: Heterodimerized IgG1 (He Ab); mutation only in the GpH7-B3 chain; also called He Ab P271L
B16: GpH7-A5/GpH7-B3 variant K326_04F/GpL16-k0 (antibody, human IgG1, kappa)
heavy 1: not shown
heavy 2: not shown
light: DIVMTQSPLSLPVTPGEPASISCQASESLVHSNRNTYLHWYLQKPGQSPQLLIYKVSNRFSGVPDRFSGSGSGTDFTLKISRVEAEDVGVYYCSQNTHVPPTFGQGTKVEIERTVAAPSVFIFPPSDEQLKSGTASVVCLLNNFYPREAKVQWKVDNALQSGNSQESVTEQDSKDSTYSLSSTLTLSKADYEKHKVYACEVTHQGLSSPVTKSFNRGEC
notes: Heterodimerized IgG1 (He Ab); mutation only in the GpH7-B3 chain; also called He Ab K326F

What was measured:
[1] = biological target: T1, FcγRIIb, extracellular domain with …; assay: SPR (Biacore), antibody captured on antigen-peptide chip, FcγR as analyte; GpH7-A5/GpH7-B3/GpL16-k0 = 100
Protocol: (§1) The heterodimerized antibodies He Abs in which one of the H chains was introduced with an alteration were assayed for their binding activities to each activating FcγR and inhibitory FcγR according to the method described in Example 4. […] The activating FcγRs in FIGS. 26, 27, 28, and 29 are FcγRIa, FcγRIIa (R), FcγRIIa (H), and FcγRIIIa, respectively.
(§2) Analysis of interaction between objective antibody and the FcγR was carried out using Biacore T100 (GE Healthcare). HBS-EP+ (GE Healthcare) was used as the running buffer, and the measurement temperature was set to 25° C. Chips produced by immobilizing the antigen peptide by the amine coupling method to a Series S Sencor Chip CM5 (GE Healthcare), or alternatively, chips produced by allowing preliminarily biotinylated antigen peptides to interact with and immobilize onto a Series S Sensor Chip SA (certified) (GE Healthcare) were used. Antibodies of interest were captured onto an antigen peptide-immobilized chip, and allowed to interact to each FcγR diluted with running buffer. To regenerate and repeatedly use the chip, the antibodies captured on the chip were washed off by reacting 10 mM glycine-HCl, pH 1.5.

[2] = biological target: T2, FcγRIIa H (FcγRIIa type H, His at …); assay: as above
Protocol: as §1, §2

| Binder | He/Con_2b (relative binding activity) [1] | He/Con_2aH (relative binding activity) [2] |
| --- | --- | --- |
| B1 | 144 % of control | 99.2 % of control |
| B2 | 175 % of control | 97 % of control |
| B3 | 177 % of control | 92.7 % of control |
| B4 | 218 % of control | 61.3 % of control |
| B5 | 116 % of control | 81.8 % of control |
| B6 | 109 % of control | 63.1 % of control |
| B7 | 108 % of control | 85 % of control |
| B8 | 114 % of control | 99.2 % of control |
| B9 | 120 % of control | 70.1 % of control |
| B10 | 126 % of control | 98.8 % of control |
| B11 | 134 % of control | 97.2 % of control |
| B12 | 111 % of control | 95.8 % of control |
| B13 | 103 % of control | 97.6 % of control |
| B14 | 102 % of control | 98.1 % of control |
| B15 | 103 % of control | 86.7 % of control |
| B16 | 155 % of control | 97 % of control |
